Article doi:10.1101/681668 (bioRxiv, 2019)

Molecular target: T1, MBP-ORC1 CDK123 (human, UniProt Q13415 1-861, S258A | S273A | T375A)
T1 sequence: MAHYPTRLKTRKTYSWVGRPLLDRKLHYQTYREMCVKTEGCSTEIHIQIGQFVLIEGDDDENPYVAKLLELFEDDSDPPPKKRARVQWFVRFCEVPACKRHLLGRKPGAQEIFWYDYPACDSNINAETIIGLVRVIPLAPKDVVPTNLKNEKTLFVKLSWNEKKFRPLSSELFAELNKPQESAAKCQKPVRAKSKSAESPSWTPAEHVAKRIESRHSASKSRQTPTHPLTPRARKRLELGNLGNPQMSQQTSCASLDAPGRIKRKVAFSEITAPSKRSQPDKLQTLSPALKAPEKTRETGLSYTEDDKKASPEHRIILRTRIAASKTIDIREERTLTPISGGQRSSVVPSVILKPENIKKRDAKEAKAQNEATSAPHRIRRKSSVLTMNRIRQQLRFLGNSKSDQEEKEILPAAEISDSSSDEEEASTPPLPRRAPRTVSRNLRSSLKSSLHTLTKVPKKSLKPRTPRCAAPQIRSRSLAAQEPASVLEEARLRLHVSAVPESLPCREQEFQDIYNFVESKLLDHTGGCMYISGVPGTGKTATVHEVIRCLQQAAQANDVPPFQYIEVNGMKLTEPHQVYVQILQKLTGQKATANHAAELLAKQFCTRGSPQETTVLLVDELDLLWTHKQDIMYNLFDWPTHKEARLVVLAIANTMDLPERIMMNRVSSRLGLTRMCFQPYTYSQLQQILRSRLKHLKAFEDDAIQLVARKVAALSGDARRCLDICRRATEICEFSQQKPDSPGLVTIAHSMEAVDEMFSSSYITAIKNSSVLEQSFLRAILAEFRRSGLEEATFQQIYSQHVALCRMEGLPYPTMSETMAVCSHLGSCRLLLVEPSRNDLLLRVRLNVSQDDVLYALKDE
Assay: pull-down

B1: GST-CDC6 (natural protein)
chain: MPQTRSQAQATISFPKRKLSRALNKAKNSSDAKLEPTNVQTVTCSPRVKALPLSPRKRLGDDNLCNTPHLPPCSPPKQGKKENGPPHSHTLKGRRLVFDNQLTIKSPSKRELAKVHQNKILSSVRKSQEITTNSEQRCPLKKESACVRLFKQEGTCYQQAKLVLNTAVPDRLPAREREMDVIRNFLREHICGKKAGSLYLSGAPGTGKTACLSRILQDLKKELKGFKTIMLNCMSLRTAQAVFPAIAQEICQEEVSRPAGKDMMRKLEKHMTAEKGPMIVLVLDEMDQLDSKGQDVLYTLFEWPWLSNSHLVLIGIANTLDLTDRILPRLQAREKCKPQLLNFPPYTRNQIVTILQDRLNQVSRDQVLDNAAVQFCARKVSAVSGDVRKALDVCRRAIEIVESDVKSQTILKPLSECKSPSEPLIPKRVGLIHISQVISEVDGNRMTLSQEGAQDSFPLQQKILVCSLMLLIRQLKIKEVTLGKLYEAYSKVCRKQQVAAVDQSECLSLSGLLEARGILGLKRNKETRLTKVFFKIEEKEIEHALKDKALIGNILATGLP
binding result: binds
